The target of the assay is middle domain of human Paip1 (Paip1M) (human) (UniProt Q9H074). The experiment in a line: BLI; […]; 1x PBS pH 7.4, 0.1% surfactant P20, 0.1% BSA, 500 mM NaCl; 25 C; global fit, 1:1 model. Background: BLI is a label-free optical method that tracks binding on a fibre tip over time.
Chain of middle domain of human Paip1 (Paip1M) (human) (Q9H074 157-375): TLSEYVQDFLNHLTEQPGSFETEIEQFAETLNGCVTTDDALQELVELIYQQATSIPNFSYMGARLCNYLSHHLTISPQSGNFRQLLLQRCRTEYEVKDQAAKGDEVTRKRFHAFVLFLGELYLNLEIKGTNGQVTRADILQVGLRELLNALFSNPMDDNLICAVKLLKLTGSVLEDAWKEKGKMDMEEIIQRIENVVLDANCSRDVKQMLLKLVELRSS

The substance “SARS-CoV-2 SUD-core-CC (domain or fragment)” came in with a Kd of 7.2 µM.

The term Kd denotes a measure of binding affinity in units of concentration.

The record behind these values is PMC10326071.
